Reference: the supplement of paper PMC9170038

system: K4 kissing-loop RNA reporter; assay: apparent KD of K4 kissing-loop reporter; higher = weaker reporter binding; details: Eterna round: R107; input ligand: arginine 13.2 mM
Experimental: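 RNA-MaP round R107: designed RNA switches with theophylline, tryptophan, arginine or FMN aptamers are transcribed on-chip within common flanks. They are titrated with a labelled K4 kissing-loop RNA reporter in RNA-MaP buffer (100 mM Tris pH 7.5, 80 mM KCl, 4 mM MgCl2), without ligand or with the indicated ligand. Median apparent KD per design.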
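Note: bound reporter read as fluorescence of individual clusters on recovered sequencing chips by microscopy, with normalized cluster intensities fitted with a binding model.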

| Sequence | apparent KD of K4 kissing-loop reporter |
| --- | --- |
| CGGGAAUUAGGUAUCGUCGAAAGCAAGAACCGAGGACCGGUACGGCCGCCACUCGCACCAGUGAUGUUGGUACAUUUGGUAUCCG [theeternabot_sameState_KL_Trp_A_31] | 112 nM |
| UGAUACCAGACGGCCGCCACUAGGACCGGGAGUGAUGUUCCGAAAAUUAAAUGCUCGGCCGCCACUAGGACCGGGUCUGGUAUCU [TrypBX 28 #DoubleAptamer #SwitchBubble] | 253 nM |
| AAUUUAUUAACUGAUACCAGACUUAAUAAAUUGUAAAUUACUAGUGAUGUUAGUGAAUUUGUCCCUUGGCAGCAGUAUUUAUUAA [JR_ExcTheophyB_Sub009] | 133 nM |
| AAAACUCGGUAGUGAUGUUAUUGAGUGAACAAGGAUAUCUAUGAUAAGAGAAGGUGUAAGUUAAGCGUAUUUCGGCCUGUACAAU [theeternabot_sameState_KL_FMN_A_34] | 101 nM |
| AAAAUUAAGGCCGAAUUAACUUCUUGCAUACGAGGACCGGUACGGCCGCCACUCGAGUCAAGUGAUGUUUGACAAUCUAUUAUUA [JR_ExcTryptoA_Sub010] | 124 nM |
| UGUCAUUGGUCGGCCGCCACUAGAAGGUCAAAGACCAUAGAGUGAUGUUCUAAGACGAAAGUCACUAGGACCGGGACCGAUGACU [TrypBS 1 #SwitchBubble #K4Middle] | 1080 nM |
| AAGUGUGUGGCGGCCGCCACUAGAAUCCAGUGAUGUUGGAGUAAUCAAAUAAAUGAUAAUCAACAUAGGACCGGGCCAUAUAGAA [Same State - Tryptophan B (Freestyle 3)] | 307 nM |
| UGUACCGAGUCAGGAUAUGGCGUCGAAAGACGAAUUCUAGUGAUGUUAGGGAUCUGCGAAAGCAGUCCAGAAGGGACUUGGUACU [FmnBS 26 U36] | 439 nM |
| UAACUUGCAGUGAUGUUGCAAGAACUGGAUACCAGCAUGGAAACAUGCCCUUGGCAGCCAGAAGGUAUCCUCUGCAAGAGAUACA [Design1] | 274 nM |
| GGAUAGGAAAGAGGAUAUGGGCUAGGCAAGAAUAACUUGUCUAGCAAAUCCAUGAGGAGUGAUGUUCCAGAAGGCUUUCCUAUCG [FmnBX 1 A9+U77] | 141 nM |
| AAACAUUGGUCUGAUACCAGUUAGACCGAUAGGUCAAAACUGGAGUGAUGUUCCUAAAAUAACCCUUGGCAGCAGACCGAUGAAA [MAT - Same State Theophlline B - Mod of Eli - D4] | 285 nM |
| CGUUUAUAGCAGGAUACCAGUACCCAUAAAGUACGUUAAUAGUAGAGUGAUGUUCUAAAGUACCCUUGGCAGCUUCCCGUGACCG [ExTheophylB.V] | 158 nM |
| CGAAGACUUAUGGAUACCAGCCUAGCAUCAGGUGGUUCAGAGGCAUGCAGUGAUGUUGCAGGCCCUUGGCAGCCAUGGUACUAGA [Xelebi] | 71.3 nM |
| AAGUGUGUGGCGGCCGCCACUAGUAUCCAGUGAUGUUGGAGAUAUCACGUAAGUGAUAUCCAACAUAGGACCGGGCCAUAUAGAA [Same State - Tryptophan B (Freestyle 17)] | 78.3 nM |
| GCGCGCGGCGGAGGAUAUAGCAGGUGAUCCAAGAAAGUGAGUGAUGUUUAUGGAGAUGAUGAUAUGUUAGAAGGCCGCCGCGCGC [abcdefghijklmnopqrstu] | 448 nM |
| CGUUUAUAGCAGGAUACCAGUACCCAUAAAGUACGUUAAUAGUAGAGUGAUGUUCUAAAGUACCCUUGGCAGCUUCGAGUGAGUG [ExTheophylB.R] | 114 nM |
| GGACCUCAGUGAUGUUGAGGUAACGCUGAUACCAGUGACUUAAUUCGCCCUUGGCAGCAGUCCACCGAGGUAUCUGAUUAGGUCU [Default title] | 145 nM |
| AAAAUAAACUAGUGAUGUUGGUGUCCAGAUACCAGCGACGAAAGUCGCCCUUGGCAGCUGUGGACGUACAAAAUAAGUACGUCCU [MatMod 21 - Jieux - Same State - Theophylline A] | 183 nM |
| AAAAUUGCGGUCGAAAGAACUUCUUGCAUACGAGGACCGGUACGGCCGCCACUCGAGUCAAGUGAUGUUUGAUAAUCUAUUAUUA [JR_ExcTryptoA_Sub012] | 225 nM |
| UUUAUUUUCUGAGGAUAUCGUUUUACUGAAGUGAUGUUUCAGUAUUUUCAUAUUAUAUAUAAUUUUCGAGAAGGCAGUAUUAUUA [JR_Nu_SSFMNB_Sub027] | 60.4 nM |
| UAUUUAGUGACGGCCGCCACUAUUGUGAUUUAAUUGUUUGAGUGAUGUUUUGAUGUUUGAUUUUGUAGGACCGGGUUAUGUGUUA [tyttmullin] | 745 nM |
| UGGAGUUGACGAAAAGUCAACUCCAGAGAAGGAGCGGACGAAAGUCCAGGUAGGUCGCUCACUACCAGUGAUGUUGGUACUUAAA | 243 nM |
| CAUAGGAAACUAUGUUUCUCUCUUACUGAAGGAGCGCGUGAAAACGCAGGUAGGUCGCAGAAUUUGAGAGUGAUGUUCUCAUUAA [Ex Arginine A K4 14] | 211 nM |
| AAUAAAAUCACGGCCGCCACUGAUUAUUUUAUUAGGAGUGAUGUUCCUAUGACAGUAUGCCUUAACAGGACCGGGUGAAUAUUUA [#19 K4 Tryptophan B Exclusion] | 125 nM |
| GCGUAGGAAGAAGGAUAUCACAGGAUGCCACGUUAGUGAUGUUAAUUUGGUUCAGCGCGAUUCUGAUGAGAAGGUCUUUUAUGAU [theeternabot_sameState_KL_FMN_B_47] | 300 nM |
| GUGGUGGUGGCGGCCGCCACUGAAGAUAAUGAGUGAUGUUCAAGUGAUGUUAAUAAGAACAGUAUCAGGACCGGGCCACCACCAC [Default title] | 27.7 nM |
